In the Immune Epitope Database (IEDB):

Tests used:
[1] = target: HLA-A*29:02; experiment: IEDB peptide-MHC binding, purified MHC/direct/fluorescence; filed as Kd, often an IC50 or EC50 that approximates it; ≥ and ≤ were set here for values at or beyond the usual limits of such assays; conditions: source organism: West Nile virus
[2] = target: HLA-B*07:02; experiment: as above
[3] = target: HLA-B*46:01; experiment: as above; conditions: source organism: West Nile virus
[4] = target: HLA-B*48:01; experiment: as above; conditions: source organism: West Nile virus
[5] = target: HLA-A*11:01; experiment: as above
[6] = target: HLA-B*44:02; experiment: as above
[7] = target: HLA-A*03:01; experiment: as above
[8] = target: HLA-A*02:01; experiment: as above
[9] = target: HLA-B*57:01; experiment: as above
[10] = target: HLA-B*15:09; experiment: as above; conditions: source organism: West Nile virus
[11] = target: HLA-B*15:01; experiment: as above
[12] = target: HLA-B*27:05; experiment: as above
[13] = target: HLA-B*18:01; experiment: as above; conditions: source organism: West Nile virus
[14] = target: HLA-A*69:01; experiment: as above
[15] = target: HLA-A*31:01; experiment: as above
[16] = target: HLA-B*40:01; experiment: as above
[17] = target: HLA-A*01:01; experiment: as above
[18] = target: HLA-B*58:01; experiment: as above
[19] = target: HLA-B*39:01; experiment: as above; conditions: source organism: West Nile virus
[20] = target: HLA-A*31:01; experiment: IEDB peptide-MHC binding, purified MHC/competitive/fluorescence; filed as Kd, often an IC50 or EC50 that approximates it; ≥ and ≤ were set here for values at or beyond the usual limits of such assays
[21] = target: HLA-A*26:01; experiment: IEDB peptide-MHC binding, purified MHC/direct/fluorescence; filed as Kd, often an IC50 or EC50 that approximates it; ≥ and ≤ were set here for values at or beyond the usual limits of such assays
[22] = target: HLA-B*08:01; experiment: as above
[23] = target: HLA-B*35:01; experiment: as above
[24] = target: HLA-B*15:17; experiment: as above; conditions: source organism: Giardia lamblia ATCC 50803
[25] = target: HLA-A*29:02; experiment: IEDB peptide-MHC binding, purified MHC/competitive/fluorescence; filed as Kd, often an IC50 or EC50 that approximates it; ≥ and ≤ were set here for values at or beyond the usual limits of such assays; conditions: source organism: Cryptosporidium parvum Iowa II
[26] = target: HLA-A*03:01; experiment: as above
[27] = target: HLA-A*26:01; experiment: as above; conditions: source organism: Giardia lamblia ATCC 50803
[28] = target: HLA-B*46:01; experiment: as above; conditions: source organism: Giardia lamblia ATCC 50803
[29] = target: HLA-B*15:17; experiment: as above; conditions: source organism: Giardia lamblia ATCC 50803
[30] = target: HLA-B*57:01; experiment: as above; conditions: source organism: Giardia lamblia ATCC 50803
[31] = target: HLA-B*15:01; experiment: as above; conditions: source organism: Giardia lamblia ATCC 50803
[32] = target: HLA-B*18:01; experiment: as above; conditions: source organism: Giardia lamblia ATCC 50803
[33] = target: HLA-B*51:01; experiment: as above; conditions: source organism: Giardia lamblia ATCC 50803
[34] = target: HLA-B*27:03; experiment: as above; conditions: source organism: Giardia lamblia ATCC 50803
[35] = target: HLA-A*24:03; experiment: IEDB peptide-MHC binding, purified MHC/direct/fluorescence; filed as Kd, often an IC50 or EC50 that approximates it; ≥ and ≤ were set here for values at or beyond the usual limits of such assays; conditions: source organism: Pasteurella multocida
[36] = target: HLA-C*12:03; experiment: as above
[37] = source organism: West Nile virus
[38] = source organism: Francisella tularensis subsp. holarctica LVS
[39] = source organism: Vibrio cholerae
[40] = source organism: Vibrio parahaemolyticus
[41] = source organism: Mycobacterium tuberculosis
[42] = source organism: Giardia lamblia ATCC 50803
[43] = source organism: Listeria monocytogenes
[44] = source organism: Camelpox virus M-96
[45] = source organism: Influenza A virus (A/nt/60/1968(H3N2))
[46] = source organism: Campylobacter jejuni
[47] = source organism: Pasteurella multocida

AHYEEDVNL was tested, and the Kd [1] was ≥ 20 µM, the Kd [2, 37] was ≥ 20 µM and the Kd [3] was ≥ 20 µM. For the same sequence, the Kd [4] was ≥ 20 µM, the Kd [5, 37] was ≥ 20 µM and the Kd [6, 37] was ≥ 20 µM. The Kd [7, 37] was ≥ 20 µM, the Kd [8, 37] was ≥ 20 µM and the Kd [9, 37] was ≥ 20 µM. The Kd [10] was 1.8 µM, the Kd [11, 37] was ≥ 20 µM and the Kd [12, 37] was ≥ 20 µM. The Kd [13] was ≥ 20 µM, the Kd [14, 37] was ≥ 20 µM and the Kd [15, 37] was ≥ 20 µM. The Kd [16, 37] was ≥ 20 µM, the Kd [17, 37] was ≥ 20 µM and the Kd [18, 37] was ≥ 20 µM. For the same sequence, the Kd [19] was 1.71 µM.

With AIYESNIGY the Kd ([20]; source organism: Francisella tularensis subsp. tularensis FSC198) was ≥ 20 µM, the Kd [5, 38] was 0.0151 µM and the Kd [7, 38] was 0.0083 µM.

For EGIEGRIAY, the Kd [2, 39] was ≥ 20 µM, the Kd [21, 39] was 0.00861 µM and the Kd [5, 39] was ≥ 20 µM. For the same sequence, the Kd [6, 39] was ≥ 20 µM, the Kd [7, 39] was ≥ 20 µM and the Kd [8, 39] was ≥ 20 µM. The Kd [22, 39] was ≥ 20 µM, the Kd [11, 39] was 0.306 µM and the Kd [12, 39] was ≥ 20 µM. The Kd [14, 39] was ≥ 20 µM, the Kd [15, 39] was ≥ 20 µM and the Kd [16, 39] was ≥ 20 µM. For the same sequence, the Kd [17, 39] was ≥ 20 µM, the Kd [18, 39] was ≥ 20 µM and the Kd [23, 39] was 0.0159 µM.

With EVDEGSDMM the Kd [2, 40] was ≥ 20 µM, the Kd [21, 40] was 4.43 µM and the Kd [5, 40] was ≥ 20 µM. For the same sequence, the Kd [6, 40] was ≥ 20 µM, the Kd [7, 40] was ≥ 20 µM and the Kd [8, 40] was ≥ 20 µM. For the same sequence, the Kd [22, 40] was ≥ 20 µM, the Kd [11, 40] was ≥ 20 µM and the Kd [12, 40] was ≥ 20 µM. The Kd [14, 40] was 0.141 µM, the Kd [15, 40] was ≥ 20 µM and the Kd [16, 40] was ≥ 20 µM. The Kd [17, 40] was 4.3 µM, the Kd [18, 40] was ≥ 20 µM and the Kd [23, 40] was 0.254 µM.

GTAPPPLTR gave a Kd ([20]; source organism: Mycobacterium tuberculosis variant bovis BCG str. Pasteur 1173P2) of 0.00377 µM, a Kd [5, 41] of 0.0204 µM and a Kd [7, 41] of 0.32 µM.

In the case of HSSVAGGLW, the Kd [2, 42] is reported as ≥ 20 µM, the Kd [21, 42] is reported as ≥ 20 µM and the Kd [24] is reported as 0.0011 µM. For the same sequence, the Kd [5, 42] was ≥ 20 µM, the Kd [6, 42] was ≥ 20 µM and the Kd [7, 42] was ≥ 20 µM. The Kd [8, 42] was ≥ 20 µM, the Kd [9, 42] was 0.0535 µM and the Kd [22, 42] was ≥ 20 µM. For the same sequence, the Kd [11, 42] was ≥ 20 µM, the Kd [12, 42] was ≥ 20 µM and the Kd [14, 42] was ≥ 20 µM. The Kd [15, 42] was ≥ 20 µM, the Kd [16, 42] was ≥ 20 µM and the Kd [17, 42] was 0.59 µM. It also gave a Kd [18, 42] of 0.00374 µM and a Kd [23, 42] of 0.278 µM.

LLARFGLEK gave a Kd ([20]; source organism: Listeria monocytogenes J0161) of 1.4 µM, a Kd [5, 43] of 0.0103 µM and a Kd [7, 43] of 0.0141 µM.

MMGIILSKY showed a Kd [25] of 0.052 µM.

For MVGVGSLVK, the Kd [20, 37] was ≥ 20 µM and the Kd [5, 37] was 0.027 µM.

With SQEDNHFSL the Kd [2, 44] was ≥ 20 µM, the Kd [21, 44] was ≥ 20 µM and the Kd [5, 44] was ≥ 20 µM. For the same sequence, the Kd [6, 44] was ≥ 20 µM, the Kd [7, 44] was ≥ 20 µM and the Kd [8, 44] was ≥ 20 µM. For the same sequence, the Kd [22, 44] was ≥ 20 µM, the Kd ([11]; source organism: Variola virus) was 2.79 µM and the Kd [12, 44] was ≥ 20 µM. For the same sequence, the Kd [14, 44] was ≥ 20 µM, the Kd [15, 44] was ≥ 20 µM and the Kd ([16]; source organism: Variola virus) was 0.141 µM. For the same sequence, the Kd [17, 44] was ≥ 20 µM, the Kd [18, 44] was ≥ 20 µM and the Kd ([23]; source organism: Variola virus) was 1.56 µM.

TIHDRIPHR showed a Kd [26, 45] of 0.0619 µM and a Kd [20, 45] of 0.0204 µM.

With TLYYLECKR the Kd [20, 46] was 0.0545 µM and the Kd [7, 46] was ≥ 20 µM.

In the case of TMNSRYYLV, the Kd [27] is reported as ≥ 20 µM, the Kd [28] is reported as ≥ 20 µM and the Kd [29] is reported as ≥ 20 µM. For the same sequence, the Kd [26, 42] was ≥ 20 µM, the Kd [30] was ≥ 20 µM and the Kd [31] was ≥ 20 µM. The Kd [32] was ≥ 20 µM, the Kd [33] was ≥ 20 µM and the Kd [20, 42] was 0.0725 µM. For the same sequence, the Kd [34] was ≥ 20 µM.

With TVHDRTPYR the Kd ([20]; source organism: Influenza A virus (A/Waikato/7/2000(H3N2))) was ≥ 20 µM and the Kd ([7]; source organism: Influenza A virus (A/SW/MN/3128/00(H1N2))) was ≥ 20 µM.

In the case of VMLDWGIEL, the Kd [2, 47] is reported as 11.3 µM, the Kd [21, 47] is reported as ≥ 20 µM and the Kd [5, 47] is reported as 3.03 µM. The Kd [7, 47] was ≥ 20 µM, the Kd [8, 47] was 0.00619 µM and the Kd [22, 47] was ≥ 20 µM. For the same sequence, the Kd [35] was ≥ 20 µM, the Kd [11, 47] was 0.267 µM and the Kd [12, 47] was ≥ 20 µM. The Kd [14, 47] was 0.599 µM, the Kd [15, 47] was ≥ 20 µM and the Kd [16, 47] was ≥ 20 µM. For the same sequence, the Kd [17, 47] was ≥ 20 µM, the Kd [18, 47] was ≥ 20 µM and the Kd [23, 47] was 0.297 µM.

With YQFTGIKKY the Kd ([36]; source organism: Homo sapiens) was ≤ 0.001 µM.

In the case of YYFQSGNEI, the Kd ([36]; source organism: human gammaherpesvirus 4) is reported as ≥ 20 µM.
